Tests used:
[1] = target: GDNF receptors on E10 embryonic chick sympathetic neurons; experiment: saturation binding of 125I-GDNF to E10 chick sympathetic neurons, 4 C, filtration
[2] = target: GDNF receptors on E10 embryonic chick sympathetic neurons; experiment: steady-state saturation binding of 125I-GDNF to E10 embryonic chick sympathetic neurons, triplicates

B1: recombinant rat GDNF produced in Sf21 insect cells using a baculovirus expression system (ligand, UniProt Q07731 78-211, looked up)
chain: SPDKQAAALPRRERNRQAAAASPENSRGKGRRGQRGKNRGCVLTAIHLNVTDLGLGYETKEELIFRYCSGSCEAAETMYDKILKNLSRSRRLTSDKVGQACCRPVAFDDDLSFLDDSLVYHILRKHSAKRCGCI
modifications: labeled with Na-^125I by the chloramine-T method where used as tracer
Kd [1]: 0.4 nM
EC50 (read off the curve) [2]: 0.4 nM
